We go through 42 molecules from patent publication US20220324969A1 (MYTHIC THERAPEUTICS, published 2022).

B1: MYT1335 (antibody, V domains shown)
VH: QVQLVQSGAEVKKPGASVKVSCKASHYTFTNYDINWVRQAPGQGLEWIGWIYPGDGSTKYNEKFKAKATLTADTSTSTAYMELRSLRSDDTAVYYCASGYEDAMDYWGQGTTVTVSS
VL: DIQMTQSPSSLSASVGDRVTINCKASQDINSYLSWFQQKPGKAPKTLIYRANRLVDGVPSRFSGSGSGQDYTLTISSLQPEDFATYYCLQYDEFPLTFGGGTKVEIK
notes: IgG; vadastuximab VH variant #1 (G26H)
B2: MYT1340 (antibody, V domains shown)
VH: B1 VH with H26G, N31H
VL: B1 VL
notes: IgG; vadastuximab VH variant #6 (N31H)
B3: MYT1348 (antibody, V domains shown)
VH: B1 VH with H26G, P53H
VL: B1 VL
notes: IgG; vadastuximab VH variant #14 (P53H)
B4: MYT1358 (antibody, V domains shown)
VH: B1 VH with H26G, K63H
VL: B1 VL
notes: IgG; vadastuximab VH variant #24 (K63H)
B5: MYT1356 (antibody, V domains shown)
VH: B1 VH with H26G, N61H
VL: B1 VL
notes: IgG; vadastuximab VH variant #22 (N61H)
B6: MYT1352 (antibody, V domains shown)
VH: B1 VH with H26G, S57H
VL: B1 VL
notes: IgG; vadastuximab VH variant #18 (S57H)
B7: MYT1365 (antibody, V domains shown)
VH: B1 VH with H26G, Y100H
VL: B1 VL
notes: IgG; vadastuximab VH variant #31 (Y100H)
B8: MYT1371 (antibody, V domains shown)
VH: B1 VH with H26G, Y106H
VL: B1 VL
notes: IgG; vadastuximab VH variant #37 (Y106H)
B9: MYT1360 (antibody, V domains shown)
VH: B1 VH with H26G, K65H
VL: B1 VL
notes: IgG; vadastuximab VH variant #26 (K65H)
B10: MYT2655 (antibody, V domains shown)
VH: B1 VH with H26G
VL: B1 VL with S26H
notes: IgG; vadastuximab VL variant #3 (S26H)
B11: MYT1354 (antibody, V domains shown)
VH: B1 VH with H26G, K59H
VL: B1 VL
notes: IgG; vadastuximab VH variant #20 (K59H)
B12: MYT1353 (antibody, V domains shown)
VH: B1 VH with H26G, T58H
VL: B1 VL
notes: IgG; vadastuximab VH variant #19 (T58H)
B13: MYT1355 (antibody, V domains shown)
VH: B1 VH with H26G, Y60H
VL: B1 VL
notes: IgG; vadastuximab VH variant #21 (Y60H)
B14: MYT2651 (antibody, V domains shown)
VH: B1 VH with H26G, T30H, D105H
VL: B1 VL
notes: IgG; vadastuximab VH combination #3 (T30H+D105H)
B15: MYT1351 (antibody, V domains shown)
VH: B1 VH with H26G, G56H
VL: B1 VL
notes: IgG; vadastuximab VH variant #17 (G56H)
B16: MYT1343 (antibody, V domains shown)
VH: B1 VH with H26G, I34H
VL: B1 VL
notes: IgG; vadastuximab VH variant #9 (I34H)
B17: MYT1338 (antibody, V domains shown)
VH: B1 VH with H26G, F29H
VL: B1 VL
notes: IgG; vadastuximab VH variant #4 (F29H)
B18: MYT2649 (antibody, V domains shown)
VH: B1 VH with H26G, F29H, T30H
VL: B1 VL
notes: IgG; vadastuximab VH combination #1 (F29H+T30H)
B19: MYT1350 (antibody, V domains shown)
VH: B1 VH with H26G, D55H
VL: B1 VL
notes: IgG; vadastuximab VH variant #16 (D55H)
B20: MYT2652 (antibody, V domains shown)
VH: B1 VH with H26G, F29H, T30H, D105H
VL: B1 VL
notes: IgG; vadastuximab VH combination #4 (F29H+T30H+D105H)
B21: MYT1341 (antibody, V domains shown)
VH: B1 VH with H26G, Y32H
VL: B1 VL
notes: IgG; vadastuximab VH variant #7 (Y32H)
B22: MYT1347 (antibody, V domains shown)
VH: B1 VH with H26G, Y52H
VL: B1 VL
notes: IgG; vadastuximab VH variant #13 (Y52H)
B23: MYT2654 (antibody, V domains shown)
VH: B1 VH with H26G
VL: B1 VL with A25H
notes: IgG; vadastuximab VL variant #2 (A25H)
B24: MYT1349 (antibody, V domains shown)
VH: B1 VH with H26G, G54H
VL: B1 VL
notes: IgG; vadastuximab VH variant #15 (G54H)
B25: MYT1363 (antibody, V domains shown)
VH: B1 VH with H26G, S98H
VL: B1 VL
notes: IgG; vadastuximab VH variant #29 (S98H)
B26: MYT1361 (antibody, V domains shown)
VH: B1 VH with H26G, A66H
VL: B1 VL
notes: IgG; vadastuximab VH variant #27 (A66H)
B27: MYT1357 (antibody, V domains shown)
VH: B1 VH with H26G, E62H
VL: B1 VL
notes: IgG; vadastuximab VH variant #23 (E62H)
B28: MYT1370 (antibody, V domains shown)
VH: B1 VH with H26G, D105H
VL: B1 VL
notes: IgG; vadastuximab VH variant #36 (D105H)
B29: MYT1359 (antibody, V domains shown)
VH: B1 VH with H26G, F64H
VL: B1 VL
notes: IgG; vadastuximab VH variant #25 (F64H)
B30: MYT2653 (antibody, V domains shown)
VH: B1 VH with H26G
VL: B1 VL with K24H
notes: IgG; vadastuximab VL variant #1 (K24H)
B31: MYT1336 (antibody, V domains shown)
VH: B1 VH with H26G, Y27H
VL: B1 VL
notes: IgG; vadastuximab VH variant #2 (Y27H)
B32: MYT1366 (antibody, V domains shown)
VH: B1 VH with H26G, E101H
VL: B1 VL
notes: IgG; vadastuximab VH variant #32 (E101H)
B33: MYT1346 (antibody, V domains shown)
VH: B1 VH with H26G, I51H
VL: B1 VL
notes: IgG; vadastuximab VH variant #12 (I51H)
B34: MYT1345 (antibody, V domains shown)
VH: B1 VH with H26G, W50H
VL: B1 VL
notes: IgG; vadastuximab VH variant #11 (W50H)
B35: MYT1339 (antibody, V domains shown)
VH: B1 VH with H26G, T30H
VL: B1 VL
notes: IgG; vadastuximab VH variant #5 (T30H)
B36: MYT2650 (antibody, V domains shown)
VH: B1 VH with H26G, F29H, D105H
VL: B1 VL
notes: IgG; vadastuximab VH combination #2 (F29H+D105H)
B37: MYT1337 (antibody, V domains shown)
VH: B1 VH with H26G, T28H
VL: B1 VL
notes: IgG; vadastuximab VH variant #3 (T28H)
B38: MYT2644 (antibody, V domains shown)
VH: QVQLQQPGAEVVKPGASVKMSCKASGYTFTSYYIHWIKQTPGQGLEWVGVIYPGNDDISYNQKFQGKATLTADKSSTTAYMQLSSLTSEDSAVYYCAREVRLRYFDVWGQGTTVTVSS
VL: EIVLTQSPGSLAVSPGERVTMSCKSSQSVFFSSSQKNYLAWYQQIPGQSPRLLIYWASTRESGVPDRFTGSGSGTDFTLTISSVQPEDLAIYYCHQYHSSRTFGQGTKLEIK
notes: IgG; IMGN779 VL variant #28 (L98H)
B39: MYT2646 (antibody, V domains shown)
VH: B38 VH
VL: B38 VL with H98L, S100H
notes: IgG; IMGN779 VL variant #30 (S100H)
B40: MYT2645 (antibody, V domains shown)
VH: B38 VH
VL: B38 VL with H98L, S99H
notes: IgG; IMGN779 VL variant #29 (S99H)
B41: MYT2648 (antibody, V domains shown)
VH: B38 VH
VL: B38 VL with H98L, T102H
notes: IgG; IMGN779 VL variant #32 (T102H)
B42: MYT2647 (antibody, V domains shown)
VH: B38 VH
VL: B38 VL with H98L, R101H
notes: IgG; IMGN779 VL variant #31 (R101H)

Where a chain is given by its changes, count along the chain named. Names may count otherwise.

The target in this experiment is CD33 (Sino Biological, Cat #12238-H08H) (UniProt P20138 18-259). As to the kind of experiment: BLI, IgG captured on anti-human Fc sensor, 50 nM CD33, pH 7.4 vs pH 5.4. (BLI is a label-free optical method that tracks binding on a fibre tip over time.)
Sequence of CD33 (Sino Biological, Cat #12238-H08H) (P20138 18-259 limits assumed): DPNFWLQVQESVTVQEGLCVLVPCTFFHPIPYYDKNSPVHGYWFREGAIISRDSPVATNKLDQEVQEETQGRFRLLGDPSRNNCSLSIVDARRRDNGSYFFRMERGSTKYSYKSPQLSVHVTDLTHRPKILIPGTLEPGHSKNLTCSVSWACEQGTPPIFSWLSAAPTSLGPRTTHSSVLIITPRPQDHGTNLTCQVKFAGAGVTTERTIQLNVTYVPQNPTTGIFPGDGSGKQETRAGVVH
On to B1, for which the binding result was “binds”.
With B2, the binding result is listed as “binds”.
Turning to B3, the binding result is given as “binds”.
In the case of B4 it was “binds”; in that of B5, “binds”; in that of B6, “binds”.
In the case of B7 it was “binds”.
B8: the binding result was “binds”.
With B9, the binding result is “binds”.
On to B10, for which the binding result is given as “binds”.
Turning to B11, the binding result is on record as “binds”.
Consider B12, for which the binding result is given as “binds”.
In the case of B13, the binding result is given as “binds”.
As to B14, the binding result is “binds”.
Regarding B15, the binding result is on record as “binds”.
To B16 belongs “binds”; to B17, “binds”; to B18, “binds”.
For B19, the binding result was “binds”.
As for B20, the binding result was “binds”.
For the molecule B21, the binding result is on record as “binds”.
For the molecule B22, the binding result is “binds”.
To B23 belongs “binds”; to B24, “binds”.
To B25 belongs “binds”; to B26, “binds”; to B27, “binds”.
To B28 belongs “binds”; to B29, “binds”.
As to B30, the binding result is on record as “binds”.
To B31 belongs “binds”; to B32, “binds”; to B33, “binds”.
To B34 belongs “binds”; to B35, “binds”; to B36, “binds”.
As for B37, the binding result is “binds”.
Regarding B38, the binding result is “binds”.
In the case of B39 it was “binds”; in that of B40, “binds”.
In the case of B41 it was “binds”.
In the case of B42 it was “binds”.
